Experimental data reported in patent publication US20210244795A1.

Experiments:
Assay in all cases: cell-based or functional assay
[1] = biological target: HIV envelope gp160 of 246F3 (pseudotyped virus) (HIV)
[2] = biological target: HIV envelope gp160 of 25710 (pseudotyped virus, Tier 2, clade C) (HIV)
[3] = biological target: HIV envelope gp160 of 398F1 (pseudotyped virus) (HIV)
[4] = biological target: HIV envelope gp160 of BJOX2000 (pseudotyped virus) (HIV)
[5] = biological target: HIV envelope gp160 of CE0217 (pseudotyped virus) (HIV)
[6] = biological target: HIV envelope gp160 of CE1176 (pseudotyped virus) (HIV)
[7] = biological target: HIV envelope gp160 of CH119 (pseudotyped virus) (HIV)
[8] = biological target: HIV envelope gp160 of CNE55 (pseudotyped virus) (HIV)
[9] = biological target: HIV envelope gp160 of CNE8 (pseudotyped virus) (HIV)
[10] = biological target: HIV envelope gp160 of TRO11 (pseudotyped virus) (HIV)
[11] = biological target: HIV envelope gp160 of X1632 (pseudotyped virus) (HIV)
[12] = biological target: HIV envelope gp160 of X2278 (pseudotyped virus) (HIV)
[13] = biological target: SIVmac239 envelope (pseudotyped virus, tier 3 isolate) (SIV)

| Substance | IC50, pseudovirus neutralization, TZM-bl assay, mouse sera [1] [µg/mL] | IC50, neutralization of 25710 pseudovirus, TZM-bl assay, mouse sera [2] [µg/mL] | IC50, pseudovirus neutralization, TZM-bl assay, mouse sera [2] [µg/mL] | IC80, neutralization of 25710 pseudovirus, TZM-bl assay, mouse sera [2] [µg/mL] | IC50, pseudovirus neutralization, TZM-bl assay, mouse sera [3] [µg/mL] | IC50, pseudovirus neutralization, TZM-bl assay, mouse sera [4] [µg/mL] | IC50, pseudovirus neutralization, TZM-bl assay, mouse sera [5] [µg/mL] | IC50, neutralization of CE1176 pseudovirus, TZM-bl assay, mouse sera [6] [µg/mL] | IC50, pseudovirus neutralization, TZM-bl assay, mouse sera [6] [µg/mL] | IC50, pseudovirus neutralization, TZM-bl assay, mouse sera [7] [µg/mL] | IC50, pseudovirus neutralization, TZM-bl assay, mouse sera [8] [µg/mL] | IC50, pseudovirus neutralization, TZM-bl assay, mouse sera [9] [µg/mL] | IC50, pseudovirus neutralization, TZM-bl assay, mouse sera [10] [µg/mL] | IC50, pseudovirus neutralization, TZM-bl assay, mouse sera [11] [µg/mL] | IC50, pseudovirus neutralization, TZM-bl assay, mouse sera [12] [µg/mL] | IC50, pseudovirus neutralization, TZM-bl assay, mouse sera [13] [µg/mL] | fold drop in IC50 against ReCD4-Ig without sulfation [2] [fold] | fold drop in IC80 against ReCD4-Ig without sulfation [2] [fold] | fold drop in IC50 against ReCD4-Ig without sulfation [6] [fold] |
| --- | --- | --- | --- | --- | --- | --- | --- | --- | --- | --- | --- | --- | --- | --- | --- | --- | --- | --- | --- |
| ReCD4-Ig (expressed from p-ReCD4-Ig alone, no co-delivered sulfotransferase) (Fc fusion) | < 5 | 1.09 | < 5 | 3.27 | < 5 | < 5 | < 5 | 0.57 | < 5 | < 5 | < 5 | < 5 | < 5 | < 5 | < 5 | < 5 |  |  |  |
| ReCD4-Ig sulfated by co-expressed IgE-TPST2 (Fc fusion) | < 5 | 0.16 | < 5 | 1.35 | < 5 | < 5 | < 5 | 0.05 | < 5 | < 5 | < 5 | < 5 | < 5 | < 5 | < 5 |  | 6.8 | 2.4 | 10 |
